The record followed here is patent publication US10597674B2, “HPPD variants and methods of use” (BASF Agricultural Solutions Seed, US LLC, priority 2015, dated 2020).

Assay [1] concerns E. coli cells expressing an HPPD polypeptide. Put plainly: Brown Color Assay on solid LB-agar, visual score of brown pigment. The class given is cell-based. Further details: key to brown pigment formation: +++: a dark brown coloring as seen for E. coli cells expressing one of the respective mutant HPPD polypeptide without inhibitor; ++: medium brown pigmentation; +: light brown pigmentation; 0: no brown pigmentation development was detected on the LB agar plates. Here is the method: Mutant HPPD polypeptides were analyzed using a brown color assay (WO2014/043435). Bacterial cells expressing the mutant HPPD polypeptide according to the invention were assayed in 96 well format for HPPD inhibitor tolerance by spotting on solid media containing LB-agar, selection agent for the expression vector pSE420(RI)NX (WO2014/043435), 5 mM tyrosine (Sigma-Aldrich, St. Louis, USA), 42 mM succinate (Sigma-Aldrich, St. Louis, USA) and six different concentrations of the HPPD inhibitor herbicide Cmpd. 1 (0-500 μM). In the brown color assay, an overnight culture of the E. coli cells expressing one of the respective mutant HPPD polypeptides were diluted to an OD600 of 1 and 10 μl extract was spotted in triplicates on plates containing 0, 25, 50, 100, 250, or 500 μM of Cmpd. 1. Plates were covered with airpore tape and incubated at 30 degrees C. After 24 hours, the cells were kept in darkness at room temperature and after 7 days the brown pigment formation was scored visually. In the presence of an HPPD inhibitor herbicide, this pigment formation is inhibited and the color of the agar plate will not alter, unless an HPPD inhibitor herbicide tolerant HPPD polypeptide is expressed and active. […] The “++” and “+” scores a medium and light brown pigmentation, respectively, and the “0” means that no brown pigmentation development was detected on the LB agar plates.

Assay [2] relates to transgenic soybean T0 events. Description: Greenhouse spray test of T0 soybean events, herbicide tolerance rating 0-3. The class given is in vivo. Particulars: Cmpd. 1 300 g AI/ha; for number of events with Herbicide Tolerance Rating 0: five days after application; for number of events with Herbicide Tolerance Rating 1: rating 1 = slight tolerance, 50-95% leaf damage; for number of events with Herbicide Tolerance Rating 2: rating 2 = moderate tolerance, 10-49% of leaf area; for number of events with Herbicide Tolerance Rating 3: rating 3 = good tolerance, less than 10% of leaf area. The protocol:
Tolerant green shoots were transferred to rooting media or grafted. Rooted plantlets were transferred to the greenhouse after an acclimation period. Plants containing the transgene were then sprayed with HPPD inhibitor herbicides, as for example with mesotrione at a rate of 300-600 g AI/ha, or with Cmpd. […] Five to ten days after the application, the symptoms due to the application of the herbicide were evaluated and compared to the symptoms observed on wild-type plants under the same conditions.
For example, T0 soybean plants having a “plant expression cassette”, which includes an HPPD inhibitor tolerant HPPD polypeptide of the present invention, were tested towards the tolerance of Cmpd. 1.
Prior greenhouse trials with the transgenic plants, soybean transformants were routinely analyzed for the expression and presence of the transgenes using the ELISA protein detection method (see detailed description under item D and H). Only plants recovering in the selection media and having a detectable HPPD transgene protein expression were used for the herbicide tolerance analysis. A DeVries Tracker Sprayer was calibrated prior to each spraying. The chemical formulation used for Cmpd. 1 was supplemented with ammonium sulfate and methylated rape seed oil. Spray tests were conducted with a concentration, which equals to 300 grams AI per hectare (300 g AI/ha). Tolerance was evaluated 5 days after spraying. […] A rating of “3” was assigned to plants showing good tolerance, i.e. less than 10% of the leaf area from the top three trifoliate leaves showing chlorosis or only very slight bleaching.

Assay [3] deals with transgenic T1 soybean events. Description: Field trials of T1 soybean events, leaf damage eight days after application. It counts as in vivo. The protocol:
Soybean plants expressing an HPPD inhibitor tolerant polypeptide of the present invention alone, or along with a gene conferring tolerance to glyphosate and/or a gene conferring tolerance to glufosinate or having a “plant expression cassette”, which includes only an HPPD inhibitor tolerant polypeptide of the present invention, were tested for tolerance to different HPPD inhibitor herbicide chemical classes. The transgenic plants were routinely analyzed for the expression and presence of the transgenes using the ELISA protein detection method (see detailed description under item D and H). Only plants recovering in the selection media and having a detectable HPPD transgene protein expression were regenerated, transferred to the greenhouse and used at V2-V4 growth stage for the HPPD inhibitor herbicide tolerance analysis of the T0 soybean events in the greenhouse (Example 6). The chemical formulation with HPPD inhibitor herbicides was supplemented with ammonium sulfate and methyl ester rapeseed oil. Herbicide tolerance evaluation was taken 5-21 days after spraying. The best performing independent T0 soybean events were selfed to produce T1 soybean seeds. In the field trails, the advanced T1 soybean seeds were planted and treated with either 210 g/ha of isoxaflutole or 150 g/ha of Cmpd.
In Table 10, the frequency of the soybean events showing a good tolerance, i.e. equal or less than 15% damage of the total leaf area are summarized

Where [4] appears, read: 25 μM Cmpd. 1, scored after 7 days.
[5] abbreviates: 50 μM Cmpd. 1, scored after 7 days.
The mark [6] stands for this setting: 100 μM Cmpd. 1, scored after 7 days.
[7] abbreviates: 250 μM Cmpd. 1, scored after 7 days.
[8] abbreviates: 500 μM Cmpd. 1, scored after 7 days.
Setting [9] is: 150 g/ha Cmpd. 1, stage V2-V4, eight days after application.
Where [10] appears, read: 210 g/ha isoxaflutole, stage V2-V4, eight days after application.

B1: SEQ ID NO: 32: mutant HPPD polypeptide: P268R T270E E335P G336H N337S A340V I345V (protein)
chain: MADLYENPMGLMGFEFIEFASPTPGTLEPIFEIMGFTKVATHRSKNVHLYRQGEINLILNNEPNSIASYFAAEHGPSVCGMAFRVKDSQKAYNRALELGAQPIHIDTGPMELNLPAIKGIGGAPLYLIDRFGEGSSIYDIDFVYLEGVERNPVGAGLKVIDHLTHNVYRGRMVYWANFYEKLFNFREARYFDIKGEYTGLTSKAMSAPDGMIRIPLNEESSKGAGQIEEFLMQFNGEGIQHVAFLTDDLVKTWDALKKIGMRFMTAPRDEYYEMLEGRLPDHGEPVDQLQARGILLDGSSVEGDKRLLLQIFSETLMGPVFFEFIQRKGDDGFGPHSFKVLFESVERDQVRRGVLTAD
modifications: mutant HPPD polypeptide
notes: mutant HPPD polypeptide: P268R T270E E335P G336H N337S A340V I345V
B1: the brown pigment formation result in assay [1] (setting [4]) is recorded as “+++”; in assay [1] (setting [5]) it was “+++”; in assay [1] (setting [6]) it was “+++”; in assay [1] (setting [7]), “++”; in assay [1] (setting [8]), “+”. In addition, in assay [2] (five days), the “proportion of T0 soybean events with less than 10% leaf damage” value is on record as roughly 72%. Also, the “number of events with Herbicide Tolerance Rating 0” value in assay [2] was 1. Besides, the “number of events with Herbicide Tolerance Rating 1” value in assay [2] (five days) stood at 0. In addition, the “number of events with Herbicide Tolerance Rating 2” value in assay [2] (five days) worked out at 10. Moreover, the “number of events with Herbicide Tolerance Rating 3” value in assay [2] (five days) was found to be 28. Further, the “Frequency in the population (events with ≤15% leaf damage)” value in assay [3] (setting [9]) is recorded as 42%; in assay [3] (setting [10]), 50%. In addition, the “Independent events with ≤15% leaf damage after spray” value is on record as 10 in assay [3] (setting [9]) and 12 in assay [3] (setting [10]).

B2: SEQ ID NO: 31: mutant HPPD polypeptide: P268G T270E E335P G336H N337S A340V I345V (protein)
chain: MADLYENPMGLMGFEFIEFASPTPGTLEPIFEIMGFTKVATHRSKNVHLYRQGEINLILNNEPNSIASYFAAEHGPSVCGMAFRVKDSQKAYNRALELGAQPIHIDTGPMELNLPAIKGIGGAPLYLIDRFGEGSSIYDIDFVYLEGVERNPVGAGLKVIDHLTHNVYRGRMVYWANFYEKLFNFREARYFDIKGEYTGLTSKAMSAPDGMIRIPLNEESSKGAGQIEEFLMQFNGEGIQHVAFLTDDLVKTWDALKKIGMRFMTAPGDEYYEMLEGRLPDHGEPVDQLQARGILLDGSSVEGDKRLLLQIFSETLMGPVFFEFIQRKGDDGFGPHSFKVLFESVERDQVRRGVLTAD
modifications: mutant HPPD polypeptide
notes: mutant HPPD polypeptide: P268G T270E E335P G336H N337S A340V I345V
For B2, the brown pigment formation result is “+++” in assay [1] (setting [4]); “+++” in assay [1] (setting [5]); “+++” in assay [1] (setting [6]); “++” in assay [1] (setting [7]); “+” in assay [1] (setting [8]). For the same molecule, the “number of events with Herbicide Tolerance Rating 0” value in assay [2] is recorded as 4. Further, the “number of events with Herbicide Tolerance Rating 1” value in assay [2] (five days) is listed as 1. The “number of events with Herbicide Tolerance Rating 2” value in assay [2] (five days) stood at 21. The “number of events with Herbicide Tolerance Rating 3” value in assay [2] (five days) came to 30. Moreover, the “Frequency in the population (events with ≤15% leaf damage)” value is listed as 86% in assay [3] (setting [9]) and 93% in assay [3] (setting [10]). The “Independent events with ≤15% leaf damage after spray” value in assay [3] (setting [9]) is reported as 12; in assay [3] (setting [10]), 13.

B3: SEQ ID NO: 96: mutant HPPD polypeptide: R213K P268G T270E E335P G336H N337S A340V I345V (protein)
chain: MADLYENPMGLMGFEFIEFASPTPGTLEPIFEIMGFTKVATHRSKNVHLYRQGEINLILNNEPNSIASYFAAEHGPSVCGMAFRVKDSQKAYNRALELGAQPIHIDTGPMELNLPAIKGIGGAPLYLIDRFGEGSSIYDIDFVYLEGVERNPVGAGLKVIDHLTHNVYRGRMVYWANFYEKLFNFREARYFDIKGEYTGLTSKAMSAPDGMIKIPLNEESSKGAGQIEEFLMQFNGEGIQHVAFLTDDLVKTWDALKKIGMRFMTAPGDEYYEMLEGRLPDHGEPVDQLQARGILLDGSSVEGDKRLLLQIFSETLMGPVFFEFIQRKGDDGFGPHSFKVLFESVERDQVRRGVLTAD
modifications: mutant HPPD polypeptide
notes: mutant HPPD polypeptide: R213K P268G T270E E335P G336H N337S A340V I345V
Regarding B3, the brown pigment formation result is given as “+++” in assay [1] (setting [4]); “++” in assay [1] (setting [5]); “++” in assay [1] (setting [6]); “++” in assay [1] (setting [7]); “+” in assay [1] (setting [8]). The “number of events with Herbicide Tolerance Rating 0” value in assay [2] came out at 0. Further, the “number of events with Herbicide Tolerance Rating 1” value in assay [2] (five days) is listed as 5. In assay [2] (five days), the “number of events with Herbicide Tolerance Rating 2” value is recorded as 43. Also, the “number of events with Herbicide Tolerance Rating 3” value in assay [2] (five days) is reported as 34. Also, the entries for the “Frequency in the population (events with ≤15% leaf damage)” value in assay [3] (setting [9]) and in assay [3] (setting [10]) were 70% and 55%, respectively. In addition, the results for the “Independent events with ≤15% leaf damage after spray” value in assay [3] (setting [9]) and in assay [3] (setting [10]) were 14 and 11, respectively.
